Test results from patent US20060199761A1, “Insulin resistance improving agent” (Japan Science And Technology Agency, priority 2002, published 2006).

Columns and labels:
lipoatrophic mice [1] = assay: Lipoatrophic mice (PPAR-γ+/− mice treated with HX531) with or without adiponectin, gAd or leptin; format: in vivo, mouse; conditions: for insulin resistance (FIG. 8): mice without adipose tissue, administration at a physiological concentration; for Liver TG content / Serum FFA / Serum TG / Skeletal muscle TG content: HF diet; for hyperglycemia and hyperinsulinemia (insulin resistance index, FIG. 8): lipoatrophic mice, continuous systemic infusion
Procedure: (§1) The measurements of [^14C] CO2 production from [1-^14C] palmitic acid were performed using liver and muscle slices as described (Diabetes 47, 1841-1847 (1998)). Liver and muscle homogenates were prepared, and tissue triglyceride content was determined with an extract solution (CHCl3:CH3OH=2:1). The remainder of the liver and muscle was immediately frozen in liquid nitrogen and stored at −80° C. until measurement of the enzymatic activity of ACO. ACO activity in the light mitochondrial fraction of liver and muscle was measured by assay that was based on the H2O2 dependent oxidation of leuco-dichlorofluorescein (Diabetes 47, 1841-1847 (1998)).
Unless otherwise described herein, administration was performed through continuous systemic infusion (pump) in combination with a high-fat (HF) diet for the final twelve days of the six-week HX531 treatment.
FIGS. 9 and 10 show mRNAs of fatty-acid translocase (FAT)/CD36, ACO, UCP2, and PPAR-α in mouse skeletal muscle and in liver, respectively. […] HX531 was administered as a 0.1% food admixture. Mice were stimulated with or without 1 U/g body weight of insulin for two minutes. Lysates were subjected to immunoprecipitation (IP) and immunoblotting through use of the antibodies described in Mol. Cell. Biol. 16, […] (1996).

lipoatrophic mice [2] = assay: as above; format: in vivo, mouse; conditions: HX531 for four weeks
db/db mice [3] = assay: Rosiglitazone treatment of db/db mice on high-fat diet (adiponectin expression, glucose tolerance test)
KKA^y mice [4] = assay: Adiponectin administration to KKAy mice on high-fat diet; format: in vivo, mouse; conditions: for ACO activity, liver / ACO activity, skeletal muscle / Fatty acid oxidation [14C] palmitate→CO2, liver / Fatty acid oxidation [14C] palmitate→CO2, skeletal muscle / Rectal temperature / Serum FFA / Serum TG / TG content, liver / TG content, skeletal muscle: high fat diet, two weeks
Procedure: as §1
The mice were fed an HC or HF diet.
The following values were determined through use of KKA^y mice: acyl-CoA oxidase (ACO) activity and fatty acid oxidation in the skeletal muscle and in the liver, tissue triglyceride content in the skeletal muscle and in the liver, and serum free fatty acid level and serum triglyceride level. Mice were fed with high fat diet, and full-length adiponectin (Ad) or adiponectin globular domain (gAd) was administered to each mice at a dose shown in Table 2 for two weeks.

KK mice = assay: Adiponectin administration to KK mice (serum leptin); format: in vivo, mouse
Procedure: (§2) Adiponectin or leptin was administered to mice through intraperitoneal injection or continuous systemic infusion as described (Nature 401, 73-76 (1999)). An Alzet micro-osmotic pump (model 1002, Alza) was inserted subcutaneously in the back of each mouse. A daily dose (shown in Figures) of recombinant leptin (Sigma) or adiponectin was dissolved in a total volume of 0.1 mL of PBS, and the solution was delivered to mice through the pump for twelve days.

db/db mice [5] = system: db/db mice
Procedure: as §2
(§3) The areas of glucose and insulin curves were calculated by multiplying the cumulative mean height of the glucose values (1 mg/ml=1 cm) and insulin values (1 ng/ml=1 cm), respectively, by time (60 min=1 cm) (Am. J. Physiol. 240, E482-488 (1981)).
(§4) The mice were fed an HC or HF diet. In addition, Ad or gAd was administered, or none of these was administered, to the mice at a predetermined dose (μg/day).

PPAR-γ+/− mice = assay: Adiponectin infusion in PPAR-γ+/− mice on high-fat diet without HX531 (tissue TG, serum FFA/TG); format: in vivo, mouse; conditions: HF diet, no HX531, Ad 50 μg/day continuous infusion 12 days
Procedure: as §1
While PPAR-γ^+/− mice were treated with HX531 for six weeks (+) or untreated (−), recombinant full-length adiponectin (Ad), gAd, or leptin (Lep) was administered to each PPAR-γ^+/− mouse at a predetermined dose (μg/day). Administration was performed through continuous systemic infusion in combination with the high-fat (HF) diet for the final twelve days of the six-week HX531 treatment (six weeks).

KKA^y mice [6] = assay: Adiponectin administration to KKAy mice on high-fat diet; format: in vivo, mouse; conditions: adiponectin-administered KKAy mice
[7] = PPAR-γ+/− mice, HX531 alone for 6 weeks
[8] = normal C57 mice, high-fat diet, two weeks
[9] = HX531 6 weeks + gAd 2.5 μg/day continuous infusion final 12 days
[10] = gAd at a low concentration, mRNA (FIG. 9)
[11] = db/db mice, adiponectin replenishment
[12] = HX531 6 weeks + Ad 50 μg/day continuous infusion final 12 days

Procedure for C57 mice: as §2, §3, §4

With leptin: recombinant leptin (Sigma) the “insulin resistance (FIG. 8)” value (lipoatrophic mice [1]) was “alleviate their insulin resistance, albeit partially”.

For `CN1c2ccc([N+](=O)[O-])cc2N=C(c2ccc(C(=O)O)cc2)c2cc3c(cc21)C(C)(C)CCC3(C)C` [HX531, reference compound], the “visible WAT” value (lipoatrophic mice [2]) was “disappearance of visible WAT”, the “Liver TG content” value (lipoatrophic mice [1]; [7]) was 19.36 ± 1.23 mg/g tissue and the “Serum FFA” value (lipoatrophic mice [1]; [7]) was 1.48 ± 0.25 mEq/L. The “Serum TG” value (lipoatrophic mice [1]; [7]) was 201.4 ± 25.3 mg/dL, the “Skeletal muscle TG content” value (lipoatrophic mice [1]; [7]) was 15.96 ± 1.47 mg/g tissue and the “lowering of expression of lipoprotein lipase (LPL) in WAT” value (lipoatrophic mice [1]; PPAR-γ+/− mice, HX531 for three weeks) was no less than 90%.

In the case of `CN(CCOc1ccc(CC2SC(=O)NC2=O)cc1)c1ccccn1` (stereo not drawn) [Rosiglitazone], the adipose tissue mass (db/db mice [3]) is reported as 2.84 ± 0.16 g and the body weight (db/db mice [3]) is reported as 47.9 ± 1.0 g.

B1: gAd: C-terminal globular domain of adiponectin, recombinant histidine-tagged fusion protein (protein, listed as Homo sapiens)
chain: AFSVGLETYVTIPNMPIRFTKIFYNQQNHYDGSTGKFHCNIPGLYYFAYHITVYMKDVKVSLFKKDKAMLFTYDQYQENNVDQASGSVLLHLEVGDQVWLQVYGEGERNGLYADNDNDSTFTGFLL
modifications: CDS (1)..(735)
With B1 the serum leptin levels (KKA^y mice [4]) was 57.9 ± 5.7 ng/mL, the “ACO activity, liver” value (KKA^y mice [4]; gAd 2.5 μg/day) was 2.89 ± 0.35 nmol/mg/min and the “ACO activity, skeletal muscle” value (KKA^y mice [4]; gAd 2.5 μg/day) was 0.42 ± 0.04 nmol/mg/min. For the same molecule, the “Fatty acid oxidation [14C] palmitate→CO2, liver” value (KKA^y mice [4]; gAd 2.5 μg/day) was 2.89 ± 0.21 nmol/g/h, the “Fatty acid oxidation [14C] palmitate→CO2, skeletal muscle” value (KKA^y mice [4]; gAd 2.5 μg/day) was 4.06 ± 0.44 nmol/g/h and the Rectal temperature (KKA^y mice [4]; gAd 2.5 μg/day) was 37.7 ± 0.1 °C. The “Serum FFA” value (KKA^y mice [4]; gAd 2.5 μg/day) was 0.39 ± 0.04 mEq/L, the “Serum TG” value (KKA^y mice [4]; gAd 2.5 μg/day) was 96.4 ± 18.3 mg/dL and the “TG content, liver” value (KKA^y mice [4]; gAd 2.5 μg/day) was 16.04 ± 0.91 mg/g tissue. For the same molecule, the “TG content, skeletal muscle” value (KKA^y mice [4]; gAd 2.5 μg/day) was 8.06 ± 0.61 mg/g tissue, the serum leptin levels (KK mice) was 13.4 ± 2.7 ng/mL and the serum leptin levels (db/db mice [5]; db/db mice) was 145.2 ± 14.7 ng/mL. It also gave a Food intake (C57 mice; C57 mice on high-fat diet) of 6.28 ± 0.51 g/day, a WAT weight (C57 mice; [8]) of 0.48 ± 0.04 g and a body weight (C57 mice; [8]) of 20.6 ± 2.1 g. For the same molecule, the serum leptin levels (C57 mice; wild-type mice) was 10.4 ± 2.6 ng/mL, the “Liver TG content” value (lipoatrophic mice [1]; [9]) was 13.81 ± 0.91 mg/g tissue and the “Serum FFA” value (lipoatrophic mice [1]; [9]) was 0.43 ± 0.14 mEq/L. The “Serum TG” value (lipoatrophic mice [1]; [9]) was 100.3 ± 17.5 mg/dL, the “Skeletal muscle TG content” value (lipoatrophic mice [1]; [9]) was 3.88 ± 1.74 mg/g tissue and the “expression of CD36, acyl-CoA oxidase (ACO) and uncoupling protein (UCP) 2 in skeletal muscle” value (lipoatrophic mice [1]; [10]) was “increased”. The “expression of PPAR-α in skeletal muscle” value (lipoatrophic mice [1]; [10]) was “increased”, the “expression of CD36 in the liver” value (lipoatrophic mice [1]; gAd at a low concentration, mRNA (FIG. 10)) was “decreased” and the “hyperglycemia and hyperinsulinemia (insulin resistance index, FIG. 8)” value (lipoatrophic mice [1]) was “much more potently than full-length adiponectin”.

B2: Ad: recombinant full-length mouse adiponectin, histidine-tagged fusion protein expressed in bacteria (protein, UniProt Q15848 19-244, looked up)
Adiponectin: ETTTQGPGVLLPLPKGACTGWMAGIPGHPGHNGAPGRDGRDGTPGEKGEKGDPGLIGPKGDIGETGVPGAEGPRGFPGIQGRKGEPGEGAYVYRSAFSVGLETYVTIPNMPIRFTKIFYNQQNHYDGSTGKFHCNIPGLYYFAYHITVYMKDVKVSLFKKDKAMLFTYDQYQENNVDQASGSVLLHLEVGDQVWLQVYGEGERNGLYADNDNDSTFTGFLLYHDTN
With B2 the “ACO activity, liver” value (KKA^y mice [4]; Ad 50 μg/day) was 3.04 ± 0.85 nmol/mg/min, the “ACO activity, skeletal muscle” value (KKA^y mice [4]; Ad 50 μg/day) was 0.37 ± 0.04 nmol/mg/min and the “Fatty acid oxidation [14C] palmitate→CO2, liver” value (KKA^y mice [4]; Ad 50 μg/day) was 2.92 ± 0.29 nmol/g/h. For the same molecule, the “Fatty acid oxidation [14C] palmitate→CO2, skeletal muscle” value (KKA^y mice [4]; Ad 50 μg/day) was 3.95 ± 0.58 nmol/g/h, the Rectal temperature (KKA^y mice [4]; Ad 50 μg/day) was 37.3 ± 0.2 °C and the “Serum FFA” value (KKA^y mice [4]; Ad 50 μg/day) was 0.67 ± 0.09 mEq/L. For the same molecule, the “Serum TG” value (KKA^y mice [4]; Ad 50 μg/day) was 101.3 ± 19.7 mg/dL, the “TG content, liver” value (KKA^y mice [4]; Ad 50 μg/day) was 16.15 ± 0.83 mg/g tissue and the “TG content, skeletal muscle” value (KKA^y mice [4]; Ad 50 μg/day) was 8.75 ± 0.58 mg/g tissue. The “Liver TG content” value (PPAR-γ+/− mice) was 6.45 ± 0.26 mg/g tissue, the “Serum FFA” value (PPAR-γ+/− mice) was 0.35 ± 0.02 mEq/L and the “Serum TG” value (PPAR-γ+/− mice) was 60.5 ± 6.0 mg/dL. The “Skeletal muscle TG content” value (PPAR-γ+/− mice) was 5.47 ± 0.32 mg/g tissue, the “hyperinsulinemia (GTT, FIG. 14)” value (db/db mice [5]; [11]) was “significantly ameliorated” and the “leptin receptor deficiency-induced hyperglycemia (GTT, FIG. 13)” value (db/db mice [5]; [11]) was “significantly ameliorated”. The serum adiponectin levels (db/db mice [5]; mouse, in vivo) was “partially restored”, the “expression of enzymes involved in β-oxidation and UCP2 in skeletal muscle” value (KKA^y mice [6]) was “increased” and the serum adiponectin levels (C57 mice; mouse, in vivo) was “partially restored”. The “expression of leptin in WAT” value (C57 mice; wild-type mice) was “did not alter”, the “hyperglycemia and hyperinsulinemia induced by high-fat diet (GTT)” value (C57 mice; wild-type mice on high-fat diet, continuous systemic infusion of low doses) was “significantly ameliorated” and the “Liver TG content” value (lipoatrophic mice [1]; [12]) was 16.19 ± 0.72 mg/g tissue. For the same molecule, the “Serum FFA” value (lipoatrophic mice [1]; [12]) was 0.61 ± 0.13 mEq/L, the “Serum TG” value (lipoatrophic mice [1]; [12]) was 106.6 ± 18.1 mg/dL and the “Skeletal muscle TG content” value (lipoatrophic mice [1]; [12]) was 7.74 ± 0.65 mg/g tissue. For the same molecule, the “insulin-induced tyrosine phosphorylation of insulin receptor and insulin-receptor substrate 1 and insulin-stimulated phosphorylation of Akt kinase in skeletal muscle” value (lipoatrophic mice [1]; adiponectin-administered lipoatrophic mice (FIG. 11)) was “increase”, the “hyperglycemia and hyperinsulinemia (insulin resistance index, FIG. 8)” value (lipoatrophic mice [1]) was “significantly ameliorated” and the “insulin resistance (FIG. 8)” value (lipoatrophic mice [1]) was “not sufficient to completely ameliorate insulin resistance”.
